Literature values as cited in publication PMC8712716.
pKd: −log10 of the molar value.

Tests used:
TGF-beta2 (Homo sapiens) = TGF-beta2 (Homo sapiens) (UniProt P61812)
NGF-beta (Homo sapiens) = NGF-beta (Homo sapiens) (UniProt P01138)
TNF-alpha (Homo sapiens) = TNF-alpha (Homo sapiens) (UniProt P01375)
FGF-2 (Homo sapiens) = FGF-2 (Homo sapiens) (UniProt P09038)
GRP78 (Homo sapiens) = GRP78 (Homo sapiens) (UniProt P11021)
TGF-beta1 (Homo sapiens) = TGF-beta1 (Homo sapiens) (UniProt P01137)
Chain of TGF-beta1 (Homo sapiens) (P01137 279-390): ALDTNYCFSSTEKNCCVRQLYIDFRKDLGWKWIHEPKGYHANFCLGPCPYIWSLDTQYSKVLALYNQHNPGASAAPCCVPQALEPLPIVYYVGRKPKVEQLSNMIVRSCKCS

Chain of alpha-2-macroglobulin (P01023 24-1474): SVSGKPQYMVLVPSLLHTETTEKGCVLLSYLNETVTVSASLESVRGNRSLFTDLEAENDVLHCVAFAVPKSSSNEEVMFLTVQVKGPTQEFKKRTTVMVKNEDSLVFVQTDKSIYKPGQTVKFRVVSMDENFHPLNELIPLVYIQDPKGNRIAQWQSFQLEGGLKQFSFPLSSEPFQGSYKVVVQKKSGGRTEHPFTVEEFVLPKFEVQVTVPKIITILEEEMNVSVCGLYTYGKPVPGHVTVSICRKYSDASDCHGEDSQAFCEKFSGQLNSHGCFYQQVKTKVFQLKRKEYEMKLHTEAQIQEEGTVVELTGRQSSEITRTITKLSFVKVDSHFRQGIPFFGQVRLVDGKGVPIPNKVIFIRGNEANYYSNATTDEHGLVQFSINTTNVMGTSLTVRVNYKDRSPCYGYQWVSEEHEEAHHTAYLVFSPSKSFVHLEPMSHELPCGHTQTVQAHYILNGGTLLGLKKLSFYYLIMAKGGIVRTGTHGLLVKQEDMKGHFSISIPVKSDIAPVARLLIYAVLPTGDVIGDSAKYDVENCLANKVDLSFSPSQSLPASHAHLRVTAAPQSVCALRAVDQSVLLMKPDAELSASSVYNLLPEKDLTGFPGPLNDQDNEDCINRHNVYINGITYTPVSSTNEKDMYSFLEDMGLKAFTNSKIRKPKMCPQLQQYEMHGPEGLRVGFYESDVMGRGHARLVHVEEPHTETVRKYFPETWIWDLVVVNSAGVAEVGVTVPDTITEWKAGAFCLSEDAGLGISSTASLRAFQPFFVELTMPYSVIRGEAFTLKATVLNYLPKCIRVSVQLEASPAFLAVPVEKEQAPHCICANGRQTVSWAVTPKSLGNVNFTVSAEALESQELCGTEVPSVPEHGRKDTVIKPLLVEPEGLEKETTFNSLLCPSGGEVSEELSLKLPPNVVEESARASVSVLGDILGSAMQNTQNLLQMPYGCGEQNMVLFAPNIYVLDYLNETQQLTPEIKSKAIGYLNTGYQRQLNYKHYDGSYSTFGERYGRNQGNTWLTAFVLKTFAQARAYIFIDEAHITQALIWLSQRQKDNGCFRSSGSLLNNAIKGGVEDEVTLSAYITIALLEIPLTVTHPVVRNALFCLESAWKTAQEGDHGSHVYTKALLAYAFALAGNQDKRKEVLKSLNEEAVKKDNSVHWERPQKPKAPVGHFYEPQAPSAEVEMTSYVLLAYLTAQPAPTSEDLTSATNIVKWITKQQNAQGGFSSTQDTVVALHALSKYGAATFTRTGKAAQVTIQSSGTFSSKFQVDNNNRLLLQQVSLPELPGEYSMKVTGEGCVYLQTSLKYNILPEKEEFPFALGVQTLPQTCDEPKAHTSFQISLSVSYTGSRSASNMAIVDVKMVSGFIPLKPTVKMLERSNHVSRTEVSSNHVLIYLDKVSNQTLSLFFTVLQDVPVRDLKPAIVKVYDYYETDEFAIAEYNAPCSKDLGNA
Chain of TGF-beta2 (Homo sapiens) (P61812 303-414): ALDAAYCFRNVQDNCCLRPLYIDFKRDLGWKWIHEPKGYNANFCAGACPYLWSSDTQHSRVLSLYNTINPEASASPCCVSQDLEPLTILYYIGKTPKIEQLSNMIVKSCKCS
Chain of TNF-alpha (Homo sapiens) (P01375 77-233): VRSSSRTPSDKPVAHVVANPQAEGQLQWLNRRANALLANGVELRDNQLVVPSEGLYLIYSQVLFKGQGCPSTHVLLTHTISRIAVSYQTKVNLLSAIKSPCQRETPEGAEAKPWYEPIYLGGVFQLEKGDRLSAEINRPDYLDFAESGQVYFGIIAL
Chain of FGF-2 (Homo sapiens) (P09038 143-288): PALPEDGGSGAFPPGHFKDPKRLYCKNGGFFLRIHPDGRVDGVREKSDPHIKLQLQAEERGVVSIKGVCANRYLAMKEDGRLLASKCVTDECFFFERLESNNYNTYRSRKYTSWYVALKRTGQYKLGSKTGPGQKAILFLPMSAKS
Chain of GRP78 (Homo sapiens) (P11021 19-654): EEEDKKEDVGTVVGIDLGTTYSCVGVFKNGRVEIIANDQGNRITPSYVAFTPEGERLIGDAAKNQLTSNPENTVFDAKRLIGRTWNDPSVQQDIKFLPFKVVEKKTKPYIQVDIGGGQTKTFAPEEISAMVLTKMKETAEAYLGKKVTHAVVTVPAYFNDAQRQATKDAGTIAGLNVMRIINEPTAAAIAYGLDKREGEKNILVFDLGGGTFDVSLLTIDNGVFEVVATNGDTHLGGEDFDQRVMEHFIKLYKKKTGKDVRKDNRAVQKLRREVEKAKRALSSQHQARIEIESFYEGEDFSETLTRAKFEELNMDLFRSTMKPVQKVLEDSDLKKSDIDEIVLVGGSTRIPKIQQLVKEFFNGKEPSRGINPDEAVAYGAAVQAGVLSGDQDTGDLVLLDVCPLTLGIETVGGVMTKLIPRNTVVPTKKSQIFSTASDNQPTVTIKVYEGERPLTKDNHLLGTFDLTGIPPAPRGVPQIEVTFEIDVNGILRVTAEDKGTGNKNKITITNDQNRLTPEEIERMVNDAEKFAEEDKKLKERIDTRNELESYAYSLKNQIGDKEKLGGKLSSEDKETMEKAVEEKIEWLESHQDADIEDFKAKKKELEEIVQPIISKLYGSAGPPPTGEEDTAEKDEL
Chain of NGF-beta (Homo sapiens) (P01138 122-241): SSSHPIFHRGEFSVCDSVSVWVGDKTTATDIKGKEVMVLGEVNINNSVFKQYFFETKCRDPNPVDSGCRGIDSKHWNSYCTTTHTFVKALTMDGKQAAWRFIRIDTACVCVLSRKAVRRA

Substance: alpha-2-macroglobulin (from UniProt P01023)
- pKd (TGF-beta2 (Homo sapiens)): 7.92
- pKd (NGF-beta (Homo sapiens)): 6.96
- pKd (TNF-alpha (Homo sapiens)): < 6.12
- pKd (FGF-2 (Homo sapiens)): 6.23
- pKd (GRP78 (Homo sapiens)): 9.82
- pKd (TGF-beta1 (Homo sapiens)): 7.10
